Here are results for two molecules from patent publication US20220251222A1 (Johns Hopkins, published 2022).

For test [1], the target named is T1, IL-6R on IL-6-responsive HepG2 cells (UniProt P08887 20-468, limits assumed).
T1 sequence (looked up): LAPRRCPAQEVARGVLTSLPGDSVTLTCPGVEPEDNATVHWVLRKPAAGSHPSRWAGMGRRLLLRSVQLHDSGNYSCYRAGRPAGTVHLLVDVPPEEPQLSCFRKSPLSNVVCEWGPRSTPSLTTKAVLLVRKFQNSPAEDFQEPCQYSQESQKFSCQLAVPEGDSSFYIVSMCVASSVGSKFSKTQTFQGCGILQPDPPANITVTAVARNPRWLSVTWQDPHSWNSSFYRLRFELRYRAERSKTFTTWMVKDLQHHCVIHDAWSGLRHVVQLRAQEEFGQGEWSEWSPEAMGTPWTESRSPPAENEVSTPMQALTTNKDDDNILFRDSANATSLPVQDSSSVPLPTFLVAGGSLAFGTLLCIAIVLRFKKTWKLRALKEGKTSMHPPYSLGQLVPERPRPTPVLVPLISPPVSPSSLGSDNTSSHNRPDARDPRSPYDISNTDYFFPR
The experiment in a line: cell-based or functional assay.

Test [2] deals with T2, IL-6Rα expressed on lentivirally transduced HEK 293T cells (UniProt P08887 20-468, limits assumed).
T2 construct: whole, on cells; also called IL-6Rα^+ cells; IL-6Rα^+/IL-8R^- HEK 293T cells
T2 sequence (looked up): T1 sequence (looked up)
The experiment in a line: competition with 100 nM biotinylated IL-6 on IL-6Rα+/IL-8R- HEK 293T cells, flow cytometry. As to the method: IL-6Rα⁺/IL-8R⁻ and IL-6Rα⁻/IL-8R⁺ HEK 293T cells were cultured as previously described, and were trypsinized, resuspended in PBSA, and aliquoted into 96-well plates (2×10⁵ cells per well). IL-6Rα⁺/IL-8R⁻ 293T cells were incubated with titrations of various monoclonal or bispecific antibodies in the presence of saturating concentration of biotinylated IL-6 (100 nM) (Acro Biosystem, cat #: IL6-H8218-25UG) for 2 hr at 4° C. with rotation. Cells were then washed and incubated with 1:200 dilution of Alexa Fluor 647-conjugated streptavidin (Fisher Scientific, cat #: S21374) in PBSA for 15 min at 4° C. After a final wash, cells were resuspended in PBSA and analyzed on a CytoFLEX flow cytometer (Beckman Coulter). Curves were fitted to a first-order logistic model and IC₅₀ values were calculated using GraphPad Prism data analysis software. Mean fluorescence intensity (MFI) of unstimulated cells was subtracted. Similarly, IL-6Rα⁻/IL-8R⁺ 293T cells were incubated with titrations of various monoclonal or bispecific antibodies with saturating concentration of His-tagged IL-8 (400 nM) (Sino Biological, cat #: 10098-H08Y-100) for 2 hr at 4° C. with rotation. […] After a final wash, cells were resuspended in PBSA and analyzed on a CytoFLEX flow cytometer (Beckman Coulter). Curves were fitted to a first-order logistic model and IC₅₀ values were calculated using GraphPad Prism data analysis software. […]
(In flow cytometry, cells or beads pass a laser one at a time.)

Test [3] addresses T3, human IL-6Rα extracellular domain (ECD), residues 89-303 of the mature protein, with C-terminal biotin … (human, UniProt P08887 108-322, biotinylated with BirA ligase on the biotin acceptor peptide).
T3 construct: range 89-303; The range 89-303 counts on the mature protein, not on the precursor; Any linkers between the ECD, BAP and His tag are not described; also called IL-6Rα ECD; recombinant IL-6Rα
T3 sequence: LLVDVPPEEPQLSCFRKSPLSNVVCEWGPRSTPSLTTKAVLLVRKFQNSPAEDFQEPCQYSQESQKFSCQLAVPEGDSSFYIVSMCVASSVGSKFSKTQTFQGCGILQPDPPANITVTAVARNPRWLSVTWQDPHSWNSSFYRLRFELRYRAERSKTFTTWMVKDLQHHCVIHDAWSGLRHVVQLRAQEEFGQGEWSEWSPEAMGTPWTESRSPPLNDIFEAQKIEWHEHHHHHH
Put plainly: competition: antibody against 300 nM biotinylated IL-6Rα ECD binding to IL-6-displaying yeast, flow cytometry. As to the method:
Approximately 1×10⁵ human IL-6-displaying yeast per well were plated in a 96-well plate and washed with PBSA. Yeast cells were incubated with saturating concentrations of biotinylated human IL-6Rα (300 nM) and serial dilutions of unlabeled competitor antibody (either the anti-IL-6R antibody tocilizumab, the anti-IL-8R antibody 10H2, BS1, or BS2) in PBSA for 2 hours at room temperature. Cells were then washed and stained with a 1:200 dilution of Alexa647-conjugated streptavidin (Thermo) in PBSA for 15 min at 4° C. Cells were washed again and assessed for human IL-6Rα binding on a CytoFLEX flow cytometer (Beckman Coulter). Background-subtracted fluorescent signal as a fraction of receptor subunit binding in the absence of competitor antibody was plotted. Curves were fitted to a first order logistic model and half maximal inhibitory concentrations (IC₅₀s) were computed using GraphPad Prism. Assays were performed in triplicate and repeated two times with consistent results.
Tocilizumab is known to compete with IL-6 for IL-6Rα engagement. Thus, bispecific binding agents containing the tocilizumab variable regions (BS1 and BS2) were also expected to obstruct cytokine binding. […] However, tocilizumab (IC₅₀=59 nM), BS1 (IC₅₀=190 nM), and BS2 (IC₅₀=78 nM) all inhibited IL-6/IL-6Rα binding.

B1: BS2 bispecific antibody (scFv-IgG fusion: 10H2 IgG with tocilizumab scFv on the light chains) (bispecific antibody)
heavy: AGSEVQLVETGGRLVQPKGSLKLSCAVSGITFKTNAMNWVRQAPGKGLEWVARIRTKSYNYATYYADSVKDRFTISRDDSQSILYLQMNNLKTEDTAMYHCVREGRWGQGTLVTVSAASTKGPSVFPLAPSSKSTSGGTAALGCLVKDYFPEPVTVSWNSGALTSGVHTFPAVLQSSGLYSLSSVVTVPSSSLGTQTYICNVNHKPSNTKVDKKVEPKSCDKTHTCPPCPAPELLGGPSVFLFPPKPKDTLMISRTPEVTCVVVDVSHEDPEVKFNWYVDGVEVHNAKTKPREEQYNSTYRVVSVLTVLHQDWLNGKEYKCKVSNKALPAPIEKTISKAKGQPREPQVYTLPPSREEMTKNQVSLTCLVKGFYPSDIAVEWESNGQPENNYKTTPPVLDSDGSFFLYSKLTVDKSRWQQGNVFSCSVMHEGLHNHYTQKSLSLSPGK
light: AGSQAVVTQESALTTSPGETVTLTCRSSTGAVTTSNYANWVQEKPDHLFTGLIGGTNNRPPGVPARFSGSLIGDKAALTITGAQIEDEAIYFCALWYSNHLVFGGGTKLTVLRTVAAPSVFIFPPSDEQLKSGTASVVCLLNNFYPREAKVQWKVDNALQSGNSQESVTEQDSKDSTYSLSSTLTLSKADYEKHKVYACEVTHQGLSSPVTKSFNRGECGGGGSGGGGSEVQLQESGPGLVRPSQTLSLTCTVSGYSITSDHAWSWVRQPPGRGLEWIGYISYSGITTYNPSLKSRVTMLRDTSKNQFSLRLSSVTAADTAVYYCARSLARTTAMDYWGQGSLVTVSSGGGGSGGGGSGGGGSDIQMTQSPSSLSASVGDRVTITCRASQDISSYLNWYQQKPGKAPKLLIYYTSRLHSGVPSRFSGSGSGTDFTFTISSLQPEDIATYYCQQGNTLPYTFGQGTKVEIK
notes: Human IgG1-based
Usually IC50 stands for the concentration needed to halve the response being measured. The low end stands for greater potency in that assay, the high end for weaker potency in that assay. In the case of B1, in test [1], the “inhibition of IL-6-induced STAT3 phosphorylation in HepG2 cells (IC50)” value is 220 nM. Also, the IC50 came to 96 nM in test [2] and 78 nM in test [3].

B2: tocilizumab, recombinant monoclonal hIgG1 (anti-IL-6Rα) (antibody, V domains shown)
VH: EVQLQESGPGLVRPSQTLSLTCTVSGYSITSDHAWSWVRQPPGRGLEWIGYISYSGITTYNPSLKSRVTMLRDTSKNQFSLRLSSVTAADTAVYYCARSLARTTAMDYWGQGSLVTVSS
VL: DIQMTQSPSSLSASVGDRVTITCRASQDISSYLNWYQQKPGKAPKLLIYYTSRLHSGVPSRFSGSGSGTDFTFTISSLQPEDIATYYCQQGNTLPYTFGQGTKVEIK
notes: also called anti-IL-6Rα antibody
Take B2: the “inhibition of IL-6 signaling (pSTAT3) in HepG2 cells (IC50)” value in test [1] was found to be 76 nM. The IC50 in test [2] stood at 30 nM; in test [3], 59 nM.
